We go through two molecules from patent publication US20250129136A1.

One assay concerns the target hPBMC. Put plainly: flow cytometry, percent of stained hPBMC against the concentration of Alexa647-labeled hDsg3-hFc. On the technique in general: A flow cytometer gives signals particle by particle.
Assay [1] has as its target Fcγ receptor of mouse macrophages (RAW264.7 cells) (mouse). In words: flow cytometry dot plot of RAW264.7 macrophage cells, 10 nM mDsg3-IgG2a-Alexa647; the same quadrant at 0 nM prints 1.28.
Assay [2] deals with F779 patient-derived anti-Dsg3 antibody on Nalm-6 cells. Put plainly: flow cytometry, F779 cells incubated with varying concentrations of mDsg3-mFc (IgG2a), percent of stained F779 cells [top].
For assay [3] the target is unchanged. Put plainly: flow cytometry on F779 cells, titration of Alexa647-labeled protein.
The target of assay [4] is PVB28 patient-derived anti-Dsg3 antibody on Nalm-6 cells. In words: cell-based or functional assay.
Assay [5] addresses AK23 antibody (anti-mouse Dsg3, from AK23 hybridoma). In words: cell-based or functional assay.
In assay [6] the target is F779 patient-derived anti-Dsg3 antibody on Nalm-6 cells. Put plainly: cell-based or functional assay.
In assay [7] the target is Fcγ receptor of mouse macrophages (RAW264.7 cells) (mouse). In words: flow cytometry on Raw macrophage cells, titration of labeled protein.

As usually defined, the EC50 is the concentration needed to bring the measured effect to its halfway point. Regarding hDsg3(EC13)-hFc (Fc fusion), in the assay with hPBMC, the EC50 stood at 1.7 nM.

B1: mDsg3(EC13)-mFc (Fc fusion)
chain: EWVKFAKPCREREDNSRRNPIAKITSDFQKNQKITYRISGVGIDQPPFGIFVVDPNNGDINITAIVDREETPSFLITCRALNALGQDVERPLILTVKILDVNDNPPIFSQTIFKGEIEENSASNSLVMILNATDADEPNHMNSKIAFKIVSQEPAGMSMFLISRNTGEVRTLTSSLDREQISSYHLVVSGADNDGTGLSTQCECSIKIKDVNDNFPVLRESQYSARIEENTLNAELLRFQVTDWDEEYTDNWLAVYFFTSGNEGNWFEIETDPRTNEGILKVVKALDYEQVQSMQFSIAVRNKAEFHQSVISQYRVQSTPVTIQVIDVREGISGGGGSGGSEPRGPTIKPCPPCKCPAPNLLGGPSVFIFPPKIKDVLMISLSPIVTCVVVDVSEDDPDVQISWFVNNVEVHTAQTQTHREDYNSTLRVVSALPIQHQDWMSGKEFKCKVNNKDLPAPIERTISKPKGSVRAPQVYVLPPPEEEMTKKQVTLTCMVTDFMPEDIYVEWTNNGKTELNYKNTEPVLDSDGSYFMYSKLRVEKKNWVERNSYSCSVVHEGLHNHHTTKSFSRTPGKGGGGSGGGGSDYKDDDDKLPETGGHHHHHH
modifications: Alexa Fluor 647 installed site-specifically at the C-terminus by sortase (Gly3-Alexa647 on the LPETG motif) for the flow cytometry stainings
Molecule B1 returned a number in the Alexa647-positive upper right quadrant at 10 nM (percent of cells) in assay [1] of 98.6%. Also, the EC50 in assay [2] came out at 2.6 nM. Also, the concentration for a half-maximal effect (EC50) in assay [3] was found to be 2.3 nM. This molecule returned a killing of targeted cells with RAW264.7 macrophages at 10 and 100 nM construct in assay [4] of 90%. This molecule also came in with a killing of AK23 target cells co-cultured with RAW264.7 macrophages, 10 nM construct, 24 hours in assay [5] of 60%. In assay [6], this molecule displayed a killing of F779 target cells co-cultured with RAW264.7 macrophages, 10 nM construct, 24 hours of 65%; a killing of F779 target cells co-cultured with RAW264.7 macrophages, 10 nM construct, 48 hours of 94%; a killing of F779 target cells with RAW264.7 macrophages (Effector:Target 10:1), 1 nM construct, 24 hours of 60%; a killing of F779 target cells with RAW264.7 macrophages (Effector:Target 10:1), 1 nM construct, 48 hours of 80%. The killing of targeted cells with RAW264.7 macrophages at 10 and 100 nM construct in assay [6] worked out at 90%. In assay [7], this molecule had an EC50 of 2.3 nM.
